B1: r11_951_TrROS_Hall (parent)
chain: KKKYVIKVYFEDTGKEVEIEAESKEEALEAAKRLAEELGLKIKKVEIYP

Variants of: B1
Experiment: folding stability dG (cDNA display proteolysis); higher = more stable
Settings: PBS, room temperature

Row | Variant | folding stability dG [kcal/mol]
1 | KKKYVIKVYFEDTGKEVEIEAESKEEALEAAKRLAEELGLKIKKVEIYF | 4.6
2 | KKKYVIKVYFEDTGKEVEIEAESKEEALEAAKRLAEELGLKIKKVEIYA | 4.33
3 | KKKYVIKVYFEDTGKEVEIEAESKEEALEACKRLAEELGLKIKKVEIYP | 4.18
4 | KKKYEIKVYFEDTGKEVEIEAESKEEALEAAKRLAEELGLKIKKVEIYP | 3.42
5 | KKKYHIKVYFEDTGKEVEIEAESKEEALEAAKRLAEELGLKIKKVEIYP | 4.32
6 | KKKYQIKVYFEDTGKEVEIEAESKEEALEAAKRLAEELGLKIKKVEIYP | 4.27
7 | KKKYPIKVYFEDTGKEVEIEAESKEEALEAAKRLAEELGLKIKKVEIYP | 2.38
8 | KKKYVIKVYFDDTGKEVEIEAESKEEALEAAKRLAEELGLKIKKVEIYP | 4.5
9 | KKKYVIKVYFMDTGKEVEIEAESKEEALEAAKRLAEELGLKIKKVEIYP | 4.8
10 | KKKYVIKVYFEDTAKEVEIEAESKEEALEAAKRLAEELGLKIKKVEIYP | 4.34
11 | KKKYVIKVYFEDTKKEVEIEAESKEEALEAAKRLAEELGLKIKKVEIYP | 4.37
12 | KKKYVIKVYFEDTMKEVEIEAESKEEALEAAKRLAEELGLKIKKVEIYP | 4.29
13 | KKKYVIKVYFEDTLKEVEIEAESKEEALEAAKRLAEELGLKIKKVEIYP | 4.25
14 | KKKYVIKVYFEDTHKEVEIEAESKEEALEAAKRLAEELGLKIKKVEIYP | 4.27
15 | KKKYVIKVYFEDTGKEVEIEAESKEEALEAAKRLPEELGLKIKKVEIYP | 2.83
16 | KKKYVIKVYFEDTGKEVEIEAESKEEALEAAKRLHEELGLKIKKVEIYP | 3.63
17 | KKKYVIKVYFEDTGKEVEIEAESKEEALEAAKRYAEELGLKIKKVEIYP | 4.45
18 | KKKYVIKVYFEDTGKEVEIEAESKEEALEAAKRCAEELGLKIKKVEIYP | 3.85
19 | KKKYVIKVYFEDTGKEVEIEAESKEEALEAAKRKAEELGLKIKKVEIYP | 4.35
20 | KKKYVIKVYFEDTGKEVEIEAESKEEALEAAKRLAEELGLKIKKFEIYP | 4.48
21 | KKKYVIKVYFEDTGKEVEIEAESKEEALEAAKRLAEELGLKIKKWEIYP | 4.59
22 | KKKYVIKVYFEDTGKEVEIEAESKEEILEAAKRLAEELGLKIKKVEIYP | 4.09

Row | Variant | folding stability dG [kcal/mol]
23 | KKKYVIKVYFEDTGIEVEIEAESKEEALEAAKRLAEELGLKIKKVEIYP | 4.22
24 | KKKYVIKVYFEDTGVEVEIEAESKEEALEAAKRLAEELGLKIKKVEIYP | 4.37
25 | KKKYVIWVYFEDTGKEVEIEAESKEEALEAAKRLAEELGLKIKKVEIYP | 4.45
26 | KKKYVEKVYFEDTGKEVEIEAESKEEALEAAKRLAEELGLKIKKVEIYP | 1.26
27 | KKKYVIKVYEEDTGKEVEIEAESKEEALEAAKRLAEELGLKIKKVEIYP | 2.52
28 | KKKYVIKVYHEDTGKEVEIEAESKEEALEAAKRLAEELGLKIKKVEIYP | 2.56
29 | KKKYVIKVYIEDTGKEVEIEAESKEEALEAAKRLAEELGLKIKKVEIYP | 3.28
30 | KKKYVIKVYFEDTGKEVEIEAESKEGALEAAKRLAEELGLKIKKVEIYP | 4.58
31 | KKKYVIKVYFEDTGKEVEIEAESKETALEAAKRLAEELGLKIKKVEIYP | 4.28
32 | VKKYVIKVYFEDTGKEVEIEAESKEEALEAAKRLAEELGLKIKKVEIYP | 4.51
33 | EKKYVIKVYFEDTGKEVEIEAESKEEALEAAKRLAEELGLKIKKVEIYP | 4.16
34 | CKKYVIKVYFEDTGKEVEIEAESKEEALEAAKRLAEELGLKIKKVEIYP | 4.57
35 | GKKYVIKVYFEDTGKEVEIEAESKEEALEAAKRLAEELGLKIKKVEIYP | 4.64
36 | IKKYVIKVYFEDTGKEVEIEAESKEEALEAAKRLAEELGLKIKKVEIYP | 4.6
37 | KKKYVIKVYFEDTGKEVEIEAESKEEALEAAKRLAEALGLKIKKVEIYP | 4.67
38 | KKKYVIKVYFEDTGKEVEIEAESKEEALEMAKRLAEELGLKIKKVEIYP | 4.47
39 | KKKYVIKVYFEDTGKEVEIEAESKEEALEQAKRLAEELGLKIKKVEIYP | 4.44
40 | KKKYVIKVYFEDTGKEVEIKAESKEEALEAAKRLAEELGLKIKKVEIYP | 4.03
41 | KKKYVIKVYFEDTGKEVEIGAESKEEALEAAKRLAEELGLKIKKVEIYP | 4.27
42 | KKKYVIKVYFEDTGKEVEINAESKEEALEAAKRLAEELGLKIKKVEIYP | 4.22
43 | KKKYVIKVYFEDTGKEVEIDAESKEEALEAAKRLAEELGLKIKKVEIYP | 4.27
44 | KKKYVIKVYFEDTGKEVEIEAESKEEALEAAKRLATELGLKIKKVEIYP | 4.6

Row | Variant | folding stability dG [kcal/mol]
45 | KKKYVIKVYFEDTGKEVEIEAESKEEALEAAKRLAEELGDKIKKVEIYP | 3.85
46 | KKKYVIKVYFEDTGKEVEIEAESKEEALEAAKRLAEELGIKIKKVEIYP | 3.96
47 | KKKYVIKVYFEDTGKEVEIEAESKEEALEAAKRLAEELGVKIKKVEIYP | 4.1
48 | KKKYVIKVYFEDTGKEVEIEAESKEEALEAAKRLAEELGAKIKKVEIYP | 4.02
49 | KKKYVIKVYFEDVGKEVEIEAESKEEALEAAKRLAEELGLKIKKVEIYP | 4.4
50 | KKKYVIKVYFEDKGKEVEIEAESKEEALEAAKRLAEELGLKIKKVEIYP | 4.48
51 | KKKYVIKVYFEDFGKEVEIEAESKEEALEAAKRLAEELGLKIKKVEIYP | 4.36
52 | KKKYVIKVYFEDWGKEVEIEAESKEEALEAAKRLAEELGLKIKKVEIYP | 4.28
53 | KKKYVIKVYFEDYGKEVEIEAESKEEALEAAKRLAEELGLKIKKVEIYP | 4.47
54 | KKKYVIKVYFEDCGKEVEIEAESKEEALEAAKRLAEELGLKIKKVEIYP | 3.6
55 | KKKYVIKVYFEDTGKEVEIEAESKEEALEAAKRLAEELGLKVKKVEIYP | 4.17
56 | KKKYVIKVYFEDTGKEVEIEAESKEEALEAAKRLAEELGLKRKKVEIYP | 2.53
57 | KKKYVIKVYFEDTGKEVEIEAESKEEALEAAKRLAEELGLKPKKVEIYP | 3.23
58 | KKKYVIKVYFEDTGKEVEIEHESKEEALEAAKRLAEELGLKIKKVEIYP | 4.3
59 | KKKYVIKVYFEDTGKEVEIEAESKPEALEAAKRLAEELGLKIKKVEIYP | 4.16
60 | KKKYVIKVYFEDTGKEVEIEAESKFEALEAAKRLAEELGLKIKKVEIYP | 4.34
61 | KKKYVIKVYFEDTGKEVEIEAESKTEALEAAKRLAEELGLKIKKVEIYP | 4.28
62 | KKKYVIKVYFEDTGKEVEIEAESKEEALEAAKRLAEESGLKIKKVEIYP | 4.28
63 | KKKYVIKVYFEDTGKEVEIEAESKEEALEAAKRLAEELGLKIKKVEVYP | 4.33
64 | KKKYVIKVYFEDTGKEVEIEAESKEEALEAAKRLAEELGLKIKKVENYP | 3.89
65 | KKKYVIKVYFEDTGKEVEIEAESKEEALEAAKRLAEELGLKIKKVEQYP | 4.25
66 | KMKYVIKVYFEDTGKEVEIEAESKEEALEAAKRLAEELGLKIKKVEIYP | 4.59

Row | Variant | folding stability dG [kcal/mol]
67 | KKKYVIKNYFEDTGKEVEIEAESKEEALEAAKRLAEELGLKIKKVEIYP | 1.36
68 | KKKYVIKGYFEDTGKEVEIEAESKEEALEAAKRLAEELGLKIKKVEIYP | 2.51
69 | KKKYVIKSYFEDTGKEVEIEAESKEEALEAAKRLAEELGLKIKKVEIYP | 1.87
70 | KKKYVIKPYFEDTGKEVEIEAESKEEALEAAKRLAEELGLKIKKVEIYP | 0.881
71 | KKKYVIKVYFEDTGKEVEIEAESKEEALKAAKRLAEELGLKIKKVEIYP | 4.53
72 | KKKYVIKVYFEDTGKEVEIEAESKEEALLAAKRLAEELGLKIKKVEIYP | 4.94
73 | KKKYVIKVYFEDTGKEVEIEAESKEEALIAAKRLAEELGLKIKKVEIYP | 4.48
74 | KKKYVIKVYFEDTGKEVEIEAESKEEALNAAKRLAEELGLKIKKVEIYP | 4.53
75 | KKKYVIKVYFEDTGKEVEIEAESKEEALEAAKRLAEELGLLIKKVEIYP | 4.36
76 | KKKYVIKVYFEDTGKEVEIEAESKEEALEAAKRLAEELGLGIKKVEIYP | 4.07
77 | KKKYVIKVYFEDTGKEVEIEAENKEEALEAAKRLAEELGLKIKKVEIYP | 4.38
78 | KKKYVIKVYFEDTGKEVEIEAEKKEEALEAAKRLAEELGLKIKKVEIYP | 3.92
79 | KKKYVIKVYFEDTGKEVEIEASSKEEALEAAKRLAEELGLKIKKVEIYP | 4.25
80 | KKKYVIKVYFEDTGKEVEIEAHSKEEALEAAKRLAEELGLKIKKVEIYP | 4.49
81 | KKMYVIKVYFEDTGKEVEIEAESKEEALEAAKRLAEELGLKIKKVEIYP | 4.59
82 | KKHYVIKVYFEDTGKEVEIEAESKEEALEAAKRLAEELGLKIKKVEIYP | 4.39
83 | KKEYVIKVYFEDTGKEVEIEAESKEEALEAAKRLAEELGLKIKKVEIYP | 3.9
84 | KKKYVIKVDFEDTGKEVEIEAESKEEALEAAKRLAEELGLKIKKVEIYP | 3.41
85 | KKKYVIKVYFEDTGKEVIIEAESKEEALEAAKRLAEELGLKIKKVEIYP | 4.61
86 | KKKYVIKVYFEDTGKEVFIEAESKEEALEAAKRLAEELGLKIKKVEIYP | 4.21
87 | KKKYVIKVYFEDTGKEVHIEAESKEEALEAAKRLAEELGLKIKKVEIYP | 4.32
88 | KKKYVIKVYFEDTGKEVEIEAESKEEALEAANRLAEELGLKIKKVEIYP | 4.51

Row | Variant | folding stability dG [kcal/mol]
89 | KKKYVIKVYFEDTGKEVEIEAESKEEALEAAPRLAEELGLKIKKVEIYP | 3.09
90 | KKKYVIKVYFEDTGKEVEIEAESKEEALEAAFRLAEELGLKIKKVEIYP | 4.98
91 | KKKYVIKVYFEDTGKEVEIEAESKEEALEAAWRLAEELGLKIKKVEIYP | 4.78
92 | KKKYVIKVYFEDTGKEVEIEAESKEEALEAAKRLAEELGLKIKKVPIYP | 2.41
93 | KKKYVIKVYFEDTGKEVEIEAESKEEALEAAKRLAEELGLKIKKVFIYP | 4.64
94 | KKKYVIKVYFEDTGKEVEIEAESKEEALEAAKTLAEELGLKIKKVEIYP | 4.18
95 | KKKYVIKVYFEDTGKEVEIEAESKEEALEAAKWLAEELGLKIKKVEIYP | 4.65
96 | KKKYVIKVYFEDTGKEVEIEAESKEEALEAAKRLAEELGLKIDKVEIYP | 4.29
97 | KKKYVIKVYFEDTGKEVEIEAESKEEALEAAKRLAEELGLKIPKVEIYP | 2.93
98 | KKKYVIKVYFEDTGKEVEIEAESKEEALEAAKRLAEELGLKIKKVEIIP | 4.43
99 | KKKYVIKVYFEDTGKEVEIEAESKEEALEAAKRLAEELGLKIKKVEILP | 4.44
100 | KKKYVIKVYFEDTGKEVEIEAESKEEALEAAKRLAEELGLKIKKVEICP | 4.46
101 | KKKYVIKVYFEDTGKEVEIEAESKEEALEAAKRLAEELGLKIKHVEIYP | 4.47
102 | KKKYVIKVYFEDTGKEVEIEAESKEEALEAAKRLAEELGLKIKPVEIYP | 2.69
103 | KKKYVIKVYFEDTGKEVEIEAESKEEALEAAKRLAEELGLKIKQVEIYP | 4.34
104 | KKKYVIKVYFEDTGKEVEIEAESKEEALEAAKRLAEELGLKIKTVEIYP | 4.17
105 | KKKYVIKVYFEDTGKEVEIEAESKEEALEAAKRLAEELGLKIKNVEIYP | 4.41
106 | KKKYVIKVYFEQTGKEVEIEAESKEEALEAAKRLAEELGLKIKKVEIYP | 4.38

Source: the MegaScale stability set (Tsuboyama et al. 2023)
